Test results from paper PMC4696747 (PLoS ONE, 2015).

Legend:
[1] = tested on: CC(=O)C(=O)O; experiment: purified protein; conditions: NADH
[2] = biological target: T1, rat lactate dehydrogenase A (rLDHA) (Rattus norvegicus, UniProt P04642); experiment: SPR (BIAcore T200), steady-state affinity; kinetic fit gives Kd […]; assay type: binding
T1 construct: gene Ldha; amino acids 1–332 of full-length wild type, untagged, biotinylated

Molecule	Km [1] [µM]	Kd [2] [µM]
rat lactate dehydrogenase A (rLDHA) (Rattus norvegicus)	530 ± 80	–
NC(=O)C1=CN([C@@H]2O[C@H](COP(=O)(O)OP(=O)(O)OC[C@H]3O[C@@H](n4cnc5c(N)ncnc54)[C@H](O)[C@@H]3O)[C@@H](O)[C@H]2O)C=CC1 [NADH]	–	6.4 ± 0.3
